Test results from publication PMC4022651, “Substitutional Analysis of the C-Terminal Domain of AbrB Revealed Its Essential Role in DNA-Binding Activity”.
Values belong to the molecule of their own block, whether it stands above or below them.

Columns and labels:
AbrB Q91A (B. subtilis) [1] = experiment: SEC; analytical gel filtration (FPLC) on Superdex 75 5/150 GL; running buffer condition I: 50 mM HEPES pH 7.5, 300 mM NaCl, 2 mM β-mercaptoethanol, no glycerol; 100 µl protein applied; 0.2 ml/min; polymeric forms as % of the areas under the curve of all protein peaks
AbrB Q91A (B. subtilis) [2] = experiment: SEC; analytical gel filtration (FPLC) on Superdex 75 5/150 GL; running buffer condition II: 50 mM HEPES pH 7.5, 300 mM NaCl, 2 mM β-mercaptoethanol with 10% glycerol; 60 µl (100 µg) protein applied; 0.2 ml/min; polymeric forms as % of the areas under the curve of all protein peaks
[3] = test system: AbrB R15A (Bacillus subtilis 168); experiment: EMSA; settings: apparent KD', from plot against AbrB tetramer; 20 mM Tris-HCl pH 8, 100 mM KCl, 5 mM MgCl2, 1 mM DTT, 10% glycerol, 0.1 mg/ml poly(dI-dC), room temperature, 20 min; 1.14 nM phyC or 0.95 nM sinIR DNA
AbrB wt [4] = molecular target: T1, AbrB wt (Bacillus subtilis 168, UniProt P08874 3-96); experiment: EMSA; settings: apparent KD', from plot against AbrB tetramer; 20 mM Tris-HCl pH 8, 100 mM KCl, 5 mM MgCl2, 1 mM DTT, 10% glycerol, 0.1 mg/ml poly(dI-dC), room temperature, 20 min; 1.14 nM phyC or 0.95 nM sinIR DNA
T1 sequence: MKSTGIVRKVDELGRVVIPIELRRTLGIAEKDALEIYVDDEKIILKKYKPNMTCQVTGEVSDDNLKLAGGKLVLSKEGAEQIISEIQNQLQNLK

AbrB wt [5] = molecular target: T1, AbrB wt; experiment: EMSA; shift above 0.1 uM, no super shift; 20 mM Tris-HCl pH 8, 100 mM KCl, 5 mM MgCl2, 1 mM DTT, 10% glycerol, 0.1 mg/ml poly(dI-dC), room temperature, 20 min; 1.14 nM phyC or 0.95 nM sinIR DNA; settings: protein: recombinant; tags: His6; chain copies: 4; label: 5'-32P; blunt

% of the protein (AUC) in the form with n 4.7 (AbrB Q91A (B. subtilis) [1]): 85%
% of the protein (AUC) in the form with n 8.2 (AbrB Q91A (B. subtilis) [1]): 15%
% of the protein (AUC) in the form with n 4.1 (AbrB Q91A (B. subtilis) [2]): > 95%
stoichiometry N (AbrB Q91A (B. subtilis) [2]): 4.1
Molecule: AbrB Q91A (natural protein)

Molecule: phyC promoter 440 bp
Kd [3]: 3400 nM
Kd (AbrB wt [4]): 660 nM

B1: sinIR P1 AbrB site 36 bp (dsDNA)
DNA 1: GTGATTTAATGGCAAATGACTTCCAGAGACTAATGA
DNA 2: TCATTAGTCTCTGGAAGTCATTTGCCATTAAATCAC
binding result (AbrB wt [5]): binds
